{
  "source": "paper doi:10.1101/2025.10.27.684738",
  "key": {"ANXA11 Ct": {"molecular_target": "T1, ANXA11 Ct (UniProt P50995 201-505)", "T1 sequence": "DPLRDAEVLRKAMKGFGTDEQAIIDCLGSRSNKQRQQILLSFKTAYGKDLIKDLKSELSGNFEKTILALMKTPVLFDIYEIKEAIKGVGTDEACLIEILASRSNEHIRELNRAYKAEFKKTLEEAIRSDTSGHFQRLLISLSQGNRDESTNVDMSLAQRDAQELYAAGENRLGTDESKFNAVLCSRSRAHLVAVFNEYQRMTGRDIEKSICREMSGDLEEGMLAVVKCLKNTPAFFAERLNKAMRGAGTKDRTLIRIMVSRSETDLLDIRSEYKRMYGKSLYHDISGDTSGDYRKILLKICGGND", "experiment": "MST"}, "ANXA11 Nt": {"molecular_target": "ANXA11 Nt (UniProt P50995 1-191)", "sequence (P50995 1-191)": "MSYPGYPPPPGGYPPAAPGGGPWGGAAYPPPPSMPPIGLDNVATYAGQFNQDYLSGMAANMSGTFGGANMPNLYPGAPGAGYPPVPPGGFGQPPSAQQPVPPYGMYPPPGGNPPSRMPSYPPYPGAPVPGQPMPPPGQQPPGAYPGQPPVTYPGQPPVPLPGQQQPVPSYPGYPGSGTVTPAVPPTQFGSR", "experiment": "MST"}},
  "data": [
    {"binder": "UUUUUUUUUU (ssRNA)", "note": "[poly-U 10-mer RNA]", "values": [
      {"measurement": "Kd", "setting": "ANXA11 Ct", "result": "3.55 ± 0.3", "unit": "µM"},
      {"measurement": "Kd", "setting": "ANXA11 Nt", "result": "4.18 ± 0.8", "unit": "µM"}
    ]}
  ]
}
